# Patent US20170166877A1
# Experiments:
# Test in all cases: cell-based or functional assay
# [1] = biological target: First generation CD19-CAR fused to two tandem FRBl domains, co-expressed with inducible Caspase-9
# [2] = biological target: First generation Her2-CAR fused to two tandem FRBl domains
# [3] = biological target: MyD88-CD40 fused to wild-type FKBP12 and FRBL, encoded by pBP1440
# [4] = biological target: FKBP.FRB.ΔC9 encoded by pBP1311 (pSFG.FKBP.FRB.ΔC9.T2A-ΔCD19)
# [5] = biological target: Non-myristoylated inducible MyD88/CD40 with two FKBP12v36 domains, encoded by pBP0606 (pSFG-k-ΔMyr.iMC.2A-ΔCD19) (human)
# Chain of Non-myristoylated inducible MyD88/CD40 with two FKBP12v36 domains, encoded by pBP0606 (pSFG-k-ΔMyr.iMC.2A-ΔCD19) (human) (chain, as listed by the source mutant limits assumed): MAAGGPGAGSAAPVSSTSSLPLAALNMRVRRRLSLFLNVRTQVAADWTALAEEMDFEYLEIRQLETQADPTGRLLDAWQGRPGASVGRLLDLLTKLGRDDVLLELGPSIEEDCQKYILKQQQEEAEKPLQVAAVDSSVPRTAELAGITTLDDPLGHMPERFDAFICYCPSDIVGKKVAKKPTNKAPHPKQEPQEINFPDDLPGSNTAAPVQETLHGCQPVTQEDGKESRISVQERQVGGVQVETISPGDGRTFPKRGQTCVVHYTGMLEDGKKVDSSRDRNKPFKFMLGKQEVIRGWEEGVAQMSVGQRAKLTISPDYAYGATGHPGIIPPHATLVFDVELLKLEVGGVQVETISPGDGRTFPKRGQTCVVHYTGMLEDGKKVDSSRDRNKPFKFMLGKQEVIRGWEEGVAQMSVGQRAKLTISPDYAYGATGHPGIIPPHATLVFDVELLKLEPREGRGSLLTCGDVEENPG
# [6] = biological target: FKBP12v36-ΔCaspase-9 encoded by the retroviral vectors pSFG-iC9.T2A-ΔCD19 (pBP0220) and its FRBL derivatives pBP0755, pBP0756, pBP0757 (human)
# [7] = biological target: FRB.FKBP.ΔC9 encoded by pBP1310 (pSFG.FRB.FKBP.ΔC9.T2A-ΔCD19)
# [8] = biological target: Four tandem FRBL domains encoded by pBP0725 (pSH1-FRBl.FRBl′.LS.FRBl″.FRBl′″)
# Chain of Four tandem FRBL domains encoded by pBP0725 (pSH1-FRBl.FRBl′.LS.FRBl″.FRBl′″) (chain, as listed by the source limits assumed): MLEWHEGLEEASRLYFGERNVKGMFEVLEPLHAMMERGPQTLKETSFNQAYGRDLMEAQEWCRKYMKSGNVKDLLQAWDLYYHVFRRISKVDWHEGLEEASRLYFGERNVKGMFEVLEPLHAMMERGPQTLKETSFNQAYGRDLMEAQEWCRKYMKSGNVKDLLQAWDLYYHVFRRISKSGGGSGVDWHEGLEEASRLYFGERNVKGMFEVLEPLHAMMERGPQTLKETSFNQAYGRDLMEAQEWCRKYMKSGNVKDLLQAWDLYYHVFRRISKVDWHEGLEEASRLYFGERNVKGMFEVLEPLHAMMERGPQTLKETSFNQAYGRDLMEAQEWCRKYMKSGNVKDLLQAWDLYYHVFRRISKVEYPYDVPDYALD
# [9] = biological target: Four tandem FKBP12 (Fpk) domains encoded by pBP0722 (pSH1-Fpk-Fpk′.LS.Fpk″.Fpk′″.LS.HA) (Homo sapiens (Human)) (UniProt P62942)
# Chain of Two FRBL domains fused to ΔCaspase-9, encoded by pBP0668 (pSFG-FRBlx2.Caspase9.2A-Q.8stm.CD3zeta) (chain): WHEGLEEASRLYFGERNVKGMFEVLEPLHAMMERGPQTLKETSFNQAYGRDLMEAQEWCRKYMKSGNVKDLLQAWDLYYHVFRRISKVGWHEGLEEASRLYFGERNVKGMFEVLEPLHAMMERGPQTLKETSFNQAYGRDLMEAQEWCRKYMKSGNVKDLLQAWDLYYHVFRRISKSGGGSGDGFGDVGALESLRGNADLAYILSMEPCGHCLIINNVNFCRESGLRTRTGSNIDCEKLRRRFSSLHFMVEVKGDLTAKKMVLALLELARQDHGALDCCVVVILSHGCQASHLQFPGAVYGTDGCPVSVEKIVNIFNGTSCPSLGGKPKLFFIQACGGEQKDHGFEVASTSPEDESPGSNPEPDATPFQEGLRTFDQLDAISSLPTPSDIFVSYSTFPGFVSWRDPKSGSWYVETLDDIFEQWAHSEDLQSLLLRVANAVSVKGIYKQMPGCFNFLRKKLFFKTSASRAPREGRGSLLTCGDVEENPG
# Chain of FKBP.FRB.ΔC9 encoded by pBP1311 (pSFG.FKBP.FRB.ΔC9.T2A-ΔCD19) (chain): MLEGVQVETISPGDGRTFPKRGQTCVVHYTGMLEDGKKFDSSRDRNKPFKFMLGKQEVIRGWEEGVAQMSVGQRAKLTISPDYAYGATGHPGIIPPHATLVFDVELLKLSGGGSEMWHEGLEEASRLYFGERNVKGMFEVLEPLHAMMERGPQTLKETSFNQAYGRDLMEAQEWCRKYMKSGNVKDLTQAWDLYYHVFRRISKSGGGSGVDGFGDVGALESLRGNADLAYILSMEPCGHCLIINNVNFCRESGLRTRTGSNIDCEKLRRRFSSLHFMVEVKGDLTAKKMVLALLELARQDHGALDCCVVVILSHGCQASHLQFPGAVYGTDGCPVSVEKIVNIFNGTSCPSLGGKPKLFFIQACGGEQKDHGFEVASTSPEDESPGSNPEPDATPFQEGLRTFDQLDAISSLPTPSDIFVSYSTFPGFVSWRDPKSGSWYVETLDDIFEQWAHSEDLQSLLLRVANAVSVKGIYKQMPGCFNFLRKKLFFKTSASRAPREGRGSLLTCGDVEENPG
# Chain of MyD88-CD40 fused to wild-type FKBP12 and FRBL, encoded by pBP1440 (chain): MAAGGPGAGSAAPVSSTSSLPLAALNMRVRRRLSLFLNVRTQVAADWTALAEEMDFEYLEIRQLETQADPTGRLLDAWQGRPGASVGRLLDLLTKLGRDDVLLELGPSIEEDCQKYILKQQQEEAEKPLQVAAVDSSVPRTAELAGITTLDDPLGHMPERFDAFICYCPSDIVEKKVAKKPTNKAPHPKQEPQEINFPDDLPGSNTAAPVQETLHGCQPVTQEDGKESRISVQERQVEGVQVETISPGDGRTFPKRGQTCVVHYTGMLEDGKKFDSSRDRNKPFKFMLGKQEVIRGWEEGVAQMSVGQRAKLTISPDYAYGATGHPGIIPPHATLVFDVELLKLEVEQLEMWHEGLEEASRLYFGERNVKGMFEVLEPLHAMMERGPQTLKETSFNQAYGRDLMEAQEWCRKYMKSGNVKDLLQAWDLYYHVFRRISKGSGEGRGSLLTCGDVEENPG
# Chain of FRB.FKBP.ΔC9 encoded by pBP1310 (pSFG.FRB.FKBP.ΔC9.T2A-ΔCD19) (chain): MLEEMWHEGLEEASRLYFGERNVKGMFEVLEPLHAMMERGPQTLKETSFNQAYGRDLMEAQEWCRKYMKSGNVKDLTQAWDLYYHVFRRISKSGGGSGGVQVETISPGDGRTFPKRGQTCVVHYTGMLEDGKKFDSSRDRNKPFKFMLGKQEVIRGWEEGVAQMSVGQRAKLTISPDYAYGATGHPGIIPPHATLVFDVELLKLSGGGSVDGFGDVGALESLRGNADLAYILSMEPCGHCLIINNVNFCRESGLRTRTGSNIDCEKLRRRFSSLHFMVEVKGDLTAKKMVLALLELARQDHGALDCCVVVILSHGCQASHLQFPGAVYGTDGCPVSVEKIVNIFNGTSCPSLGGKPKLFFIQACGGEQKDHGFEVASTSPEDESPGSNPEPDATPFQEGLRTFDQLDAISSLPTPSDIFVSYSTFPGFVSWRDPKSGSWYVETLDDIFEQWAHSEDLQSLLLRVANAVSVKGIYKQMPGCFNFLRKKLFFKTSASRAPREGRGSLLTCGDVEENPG
substance,measurement,setting,value
Inducible Caspase-9 (FKBP-tagged Caspase-9) as used in Example 17,"decrease of constitutive SRα-SEAP activity with rapamycin, transfected 293 cells (% decrease of SEAP activity)",[1],50
same,"decrease of constitutive SRα-SEAP activity with rapamycin, transfected 293 cells (% decrease of SEAP activity)",[2],50
"MyD88-CD40 fused to wild-type FKBP12 and FRBL, encoded by pBP1440","EC50 of rapamycin or isobutyloxyrapamycin in the NF-κB SeAP reporter assay, transfected 293T cells",[3],< 1 nM
FKBP.FRB.ΔC9 encoded by pBP1311 (pSFG.FKBP.FRB.ΔC9.T2A-ΔCD19),"lowest rapamycin concentration with high activity (caspase 3/7 IncuCyte assay and SRα-SEAP assay), transfected 293 cells",[4],100 pM
"Two FRBL domains fused to ΔCaspase-9, encoded by pBP0668 (pSFG-FRBlx2.Caspase9.2A-Q.8stm.CD3zeta)","rapamycin level giving elimination of CD34+CD19+ doubly transduced primary T cells (flow cytometry, 24 h)",[5],2 nM
"FKBP12v36-ΔCaspase-9 encoded by the retroviral vectors pSFG-iC9.T2A-ΔCD19 (pBP0220) and its FRBL derivatives pBP0755, pBP0756, pBP0757","rapamycin concentration without effect in the SRα-SEAP assay, transfected 293 cells",[6],> 1000 nM
FRB.FKBP.ΔC9 encoded by pBP1310 (pSFG.FRB.FKBP.ΔC9.T2A-ΔCD19),"lowest rapamycin concentration with high activity (caspase 3/7 IncuCyte assay and SRα-SEAP assay), transfected 293 cells",[7],100 pM
FKBP12v36-ΔCaspase-9 fusion encoded by pBP0044 (pSH1-iCaspase9wt),"IC50 of rapamycin or C7-isopropoxy-rapamycin for loss of constitutive SRα-SEAP reporter activity (cell death), transfected 293 cells",[8],3 nM
FRBL-ΔCaspase-9 fusion encoded by pBP0463 (pSH1-FRBL.dCaspase9.T2A),"IC50 of rapamycin or C7-isopropoxy-rapamycin for loss of constitutive SRα-SEAP reporter activity (cell death), transfected 293 cells",[9],3 nM
